# T1: FRMPD1, Q5SYB0
# T1 sequence (Q5SYB0 52-145, limits assumed, looked up): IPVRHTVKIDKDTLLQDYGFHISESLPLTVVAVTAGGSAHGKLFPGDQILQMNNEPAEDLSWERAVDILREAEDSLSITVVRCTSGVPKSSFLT
# T2: SNTG2, Q9NY99
# T2 sequence (Q9NY99 68-166, limits assumed, looked up): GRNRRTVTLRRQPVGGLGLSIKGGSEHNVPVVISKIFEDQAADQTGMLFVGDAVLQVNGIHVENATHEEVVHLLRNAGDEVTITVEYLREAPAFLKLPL
# T3: LIN7C, Q9NUP9
# T3 sequence (Q9NUP9 88-185, limits assumed, looked up): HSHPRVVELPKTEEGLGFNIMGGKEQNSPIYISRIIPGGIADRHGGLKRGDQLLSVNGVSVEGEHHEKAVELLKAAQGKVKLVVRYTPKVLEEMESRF
# T4: TX1BP3, O14907
# T4 sequence (O14907 10-122, limits assumed, looked up): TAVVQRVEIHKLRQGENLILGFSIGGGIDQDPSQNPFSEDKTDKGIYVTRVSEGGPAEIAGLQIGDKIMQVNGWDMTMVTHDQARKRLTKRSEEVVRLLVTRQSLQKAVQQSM
# T5: PTPN13_1, Q12923
# T5 sequence (Q12923 1088-1188, limits assumed, looked up): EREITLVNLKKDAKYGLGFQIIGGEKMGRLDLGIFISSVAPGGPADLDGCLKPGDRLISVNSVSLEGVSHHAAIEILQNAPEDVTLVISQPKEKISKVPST
# T6: TJP3_3, O95049
# T6 sequence (O95049 375-456, limits assumed, looked up): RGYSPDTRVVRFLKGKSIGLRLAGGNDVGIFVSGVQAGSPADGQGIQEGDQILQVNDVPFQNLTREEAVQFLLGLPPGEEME
# T7: SNTA1, Q13424
# T7 sequence (Q13424 82-180, limits assumed, looked up): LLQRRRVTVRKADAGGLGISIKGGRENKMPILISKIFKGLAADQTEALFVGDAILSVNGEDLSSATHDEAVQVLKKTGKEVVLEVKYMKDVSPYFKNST
# T8: RHPN1, Q8TCX5
# T8 sequence (Q8TCX5 508-602, limits assumed, looked up): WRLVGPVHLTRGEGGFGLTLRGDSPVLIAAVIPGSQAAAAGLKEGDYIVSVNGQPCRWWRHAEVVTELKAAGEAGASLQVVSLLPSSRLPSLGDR
# T9: PDZD7_3, Q9H5P4
# T9 sequence (Q9H5P4 857-944, limits assumed, looked up): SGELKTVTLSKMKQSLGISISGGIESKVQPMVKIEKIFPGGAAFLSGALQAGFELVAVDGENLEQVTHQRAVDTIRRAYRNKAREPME
# T10: HTRA3, P83110
# T10 sequence (P83110 354-453, limits assumed, looked up): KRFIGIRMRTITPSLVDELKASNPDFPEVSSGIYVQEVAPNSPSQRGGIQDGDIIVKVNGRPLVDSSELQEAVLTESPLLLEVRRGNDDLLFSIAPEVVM
# T11: APBA3_1, O96018
# T11 sequence (O96018 389-490, limits assumed, looked up): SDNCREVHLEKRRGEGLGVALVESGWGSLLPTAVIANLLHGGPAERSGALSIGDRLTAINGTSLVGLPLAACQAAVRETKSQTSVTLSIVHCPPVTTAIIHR
# T12: DVL3, Q92997
# T12 sequence (Q92997 244-331, limits assumed, looked up): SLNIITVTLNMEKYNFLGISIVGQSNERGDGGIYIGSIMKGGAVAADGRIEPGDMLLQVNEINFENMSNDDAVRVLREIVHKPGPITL
# B1: YAP1, P46937 (peptide)
# chain: LDKESFLTWL
# B2: ADAM17, P78536 (peptide)
# chain: NRVDSKETEC
# Target: FRMPD2_1, Q68DX3
# Sequence (Q68DX3 770-861): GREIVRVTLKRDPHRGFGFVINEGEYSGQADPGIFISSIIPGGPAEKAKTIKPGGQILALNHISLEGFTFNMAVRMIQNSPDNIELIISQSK
# Test: holdup assay
# Parameters: key: below the threshold = too weak to quantify, mostly under pKd 3.1 to 4
# Conditions: plain residues with an end cap or a label only (N-terminal biotin on a linker: ado-ado)
row,pKd,Binder
1,below the threshold,B1
2,below the threshold,B2

# Target: GRIP2_3, Q9C0E4
# Sequence (Q9C0E4 238-339): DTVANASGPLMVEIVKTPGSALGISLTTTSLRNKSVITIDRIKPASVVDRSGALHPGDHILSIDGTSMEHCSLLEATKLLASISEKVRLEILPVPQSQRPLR
# Test: holdup assay
# Parameters: key: below the threshold = too weak to quantify, mostly under pKd 3.1 to 4
# Conditions: plain residues with an end cap or a label only (N-terminal biotin on a linker: ado-ado)
row,pKd,Binder
1,below the threshold,B1
2,below the threshold,B2

# Target: T1, FRMPD1, Q5SYB0
# Test: holdup assay
# Parameters: key: below the threshold = too weak to quantify, mostly under pKd 3.1 to 4
# Conditions: plain residues with an end cap or a label only (N-terminal biotin on a linker: ado-ado)
row,pKd,Binder
1,below the threshold,B1
2,below the threshold,B2

# Target: T2, SNTG2, Q9NY99
# Test: holdup assay
# Parameters: key: below the threshold = too weak to quantify, mostly under pKd 3.1 to 4
# Conditions: plain residues with an end cap or a label only (N-terminal biotin on a linker: ado-ado)
row,pKd,Binder
1,below the threshold,B1
2,4.06,B2

# Target: T3, LIN7C, Q9NUP9
# Test: holdup assay
# Parameters: key: below the threshold = too weak to quantify, mostly under pKd 3.1 to 4
# Conditions: plain residues with an end cap or a label only (N-terminal biotin on a linker: ado-ado)
row,pKd,Binder
1,below the threshold,B1
2,3.81,B2

# Target: T4, TX1BP3, O14907
# Test: holdup assay
# Parameters: key: below the threshold = too weak to quantify, mostly under pKd 3.1 to 4
# Conditions: plain residues with an end cap or a label only (N-terminal biotin on a linker: ado-ado)
row,pKd,Binder
1,4.26,B1
2,below the threshold,B2

# Target: T5, PTPN13_1, Q12923
# Test: holdup assay
# Parameters: key: below the threshold = too weak to quantify, mostly under pKd 3.1 to 4
# Conditions: plain residues with an end cap or a label only (N-terminal biotin on a linker: ado-ado)
row,pKd,Binder
1,below the threshold,B1
2,below the threshold,B2

# Target: DLG2_3, Q15700
# Test: holdup assay
# Parameters: key: below the threshold = too weak to quantify, mostly under pKd 3.1 to 4
# Conditions: plain residues with an end cap or a label only (N-terminal biotin on a linker: ado-ado)
row,pKd,Binder
1,below the threshold,B1
2,3.97,B2

# Target: T6, TJP3_3, O95049
# Test: holdup assay
# Parameters: key: below the threshold = too weak to quantify, mostly under pKd 3.1 to 4
# Conditions: plain residues with an end cap or a label only (N-terminal biotin on a linker: ado-ado)
row,pKd,Binder
1,4.18,B1
2,below the threshold,B2

# Target: FRMPD3, Q5JV73
# Sequence (Q5JV73 12-100): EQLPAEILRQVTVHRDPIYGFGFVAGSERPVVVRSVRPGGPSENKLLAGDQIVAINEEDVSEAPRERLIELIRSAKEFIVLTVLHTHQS
# Test: holdup assay
# Parameters: key: below the threshold = too weak to quantify, mostly under pKd 3.1 to 4
# Conditions: plain residues with an end cap or a label only (N-terminal biotin on a linker: ado-ado)
row,pKd,Binder
1,4.4,B1
2,below the threshold,B2

# Target: GORASP1, Q9BQQ3
# Sequence (Q9BQQ3 1-208): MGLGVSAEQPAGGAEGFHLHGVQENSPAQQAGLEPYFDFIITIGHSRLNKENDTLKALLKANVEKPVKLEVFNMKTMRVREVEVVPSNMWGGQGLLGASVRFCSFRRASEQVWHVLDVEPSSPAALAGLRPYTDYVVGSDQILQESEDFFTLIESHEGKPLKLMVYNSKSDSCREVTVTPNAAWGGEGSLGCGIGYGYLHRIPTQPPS
# Test: holdup assay
# Parameters: key: below the threshold = too weak to quantify, mostly under pKd 3.1 to 4
# Conditions: plain residues with an end cap or a label only (N-terminal biotin on a linker: ado-ado)
row,pKd,Binder
1,5.11,B1
2,below the threshold,B2

# Target: T7, SNTA1, Q13424
# Test: holdup assay
# Parameters: key: below the threshold = too weak to quantify, mostly under pKd 3.1 to 4
# Conditions: plain residues with an end cap or a label only (N-terminal biotin on a linker: ado-ado)
row,pKd,Binder
1,below the threshold,B1
2,4.7,B2

# Target: T8, RHPN1, Q8TCX5
# Test: holdup assay
# Parameters: key: below the threshold = too weak to quantify, mostly under pKd 3.1 to 4
# Conditions: plain residues with an end cap or a label only (N-terminal biotin on a linker: ado-ado)
row,pKd,Binder
1,4.7,B1
2,below the threshold,B2

# Target: ARHGEF12, Q9NZN5-2
# Sequence (Q9NZN5 other isoform, or with tags, fused parts or gaps): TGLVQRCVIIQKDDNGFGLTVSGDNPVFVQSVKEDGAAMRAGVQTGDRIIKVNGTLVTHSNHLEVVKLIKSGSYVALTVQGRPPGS
# Test: holdup assay
# Parameters: key: below the threshold = too weak to quantify, mostly under pKd 3.1 to 4
# Conditions: plain residues with an end cap or a label only (N-terminal biotin on a linker: ado-ado)
row,pKd,Binder
1,4.84,B1
2,3.95,B2

# Target: T9, PDZD7_3, Q9H5P4
# Test: holdup assay
# Parameters: key: below the threshold = too weak to quantify, mostly under pKd 3.1 to 4
# Conditions: plain residues with an end cap or a label only (N-terminal biotin on a linker: ado-ado)
row,pKd,Binder
1,4.92,B1
2,below the threshold,B2

# Target: T10, HTRA3, P83110
# Test: holdup assay
# Parameters: key: below the threshold = too weak to quantify, mostly under pKd 3.1 to 4
# Conditions: plain residues with an end cap or a label only (N-terminal biotin on a linker: ado-ado)
row,pKd,Binder
1,5.5,B1
2,3.65,B2

# Target: PDZRN4_1, Q6ZMN7
# Sequence (Q6ZMN7 213-318): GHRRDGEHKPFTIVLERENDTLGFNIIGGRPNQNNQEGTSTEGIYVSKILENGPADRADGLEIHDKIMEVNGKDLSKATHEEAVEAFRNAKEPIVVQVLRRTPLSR
# Test: holdup assay
# Parameters: key: below the threshold = too weak to quantify, mostly under pKd 3.1 to 4
# Conditions: plain residues with an end cap or a label only (N-terminal biotin on a linker: ado-ado)
row,pKd,Binder
1,4.1,B1
2,below the threshold,B2

# Target: T11, APBA3_1, O96018
# Test: holdup assay
# Parameters: key: below the threshold = too weak to quantify, mostly under pKd 3.1 to 4
# Conditions: plain residues with an end cap or a label only (N-terminal biotin on a linker: ado-ado)
row,pKd,Binder
1,below the threshold,B1
2,below the threshold,B2

# Target: T12, DVL3, Q92997
# Test: holdup assay
# Parameters: key: below the threshold = too weak to quantify, mostly under pKd 3.1 to 4
# Conditions: plain residues with an end cap or a label only (N-terminal biotin on a linker: ado-ado)
row,pKd,Binder
1,4.64,B1
2,below the threshold,B2

# Target: PTPN3, P26045
# Sequence (P26045 505-587): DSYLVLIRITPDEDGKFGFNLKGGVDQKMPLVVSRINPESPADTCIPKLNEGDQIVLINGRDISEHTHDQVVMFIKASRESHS
# Test: holdup assay
# Parameters: key: below the threshold = too weak to quantify, mostly under pKd 3.1 to 4
# Conditions: plain residues with an end cap or a label only (N-terminal biotin on a linker: ado-ado)
row,pKd,Binder
1,4.62,B1
2,4.98,B2

# Target: Inadl_4, Q8NI35
# Sequence (Q8NI35 547-651): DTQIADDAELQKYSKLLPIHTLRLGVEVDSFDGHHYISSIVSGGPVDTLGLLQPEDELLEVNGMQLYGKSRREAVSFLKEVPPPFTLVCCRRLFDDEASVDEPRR
# Test: holdup assay
# Parameters: key: below the threshold = too weak to quantify, mostly under pKd 3.1 to 4
# Conditions: plain residues with an end cap or a label only (N-terminal biotin on a linker: ado-ado)
row,pKd,Binder
1,below the threshold,B1
2,below the threshold,B2

# Target: MAGI2_4, Q86UL8
# Sequence (Q86UL8 772-865): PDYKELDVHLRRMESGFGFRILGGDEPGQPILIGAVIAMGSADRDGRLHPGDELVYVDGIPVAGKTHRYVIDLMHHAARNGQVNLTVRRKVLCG
# Test: holdup assay
# Parameters: key: below the threshold = too weak to quantify, mostly under pKd 3.1 to 4
# Conditions: plain residues with an end cap or a label only (N-terminal biotin on a linker: ado-ado)
row,pKd,Binder
1,3.94,B1
2,3.53,B2

# Target: MAST1, Q9Y2H9
# Sequence (Q9Y2H9 962-1065): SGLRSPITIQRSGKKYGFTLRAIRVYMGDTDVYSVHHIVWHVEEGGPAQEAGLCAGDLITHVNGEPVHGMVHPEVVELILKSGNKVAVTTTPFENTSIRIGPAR
# Test: holdup assay
# Parameters: key: below the threshold = too weak to quantify, mostly under pKd 3.1 to 4
# Conditions: plain residues with an end cap or a label only (N-terminal biotin on a linker: ado-ado)
row,pKd,Binder
1,4.28,B1
2,3.88,B2

# Target: Inadl_5, Q8NI35
# Sequence (Q8NI35 673-780): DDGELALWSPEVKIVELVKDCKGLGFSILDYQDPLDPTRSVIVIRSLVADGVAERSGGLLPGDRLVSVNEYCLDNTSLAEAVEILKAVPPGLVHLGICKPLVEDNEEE
# Test: holdup assay
# Parameters: key: below the threshold = too weak to quantify, mostly under pKd 3.1 to 4
# Conditions: plain residues with an end cap or a label only (N-terminal biotin on a linker: ado-ado)
row,pKd,Binder
1,below the threshold,B1
2,below the threshold,B2

# Target: FRMPD2_2, Q68DX3
# Sequence (Q68DX3 944-1038): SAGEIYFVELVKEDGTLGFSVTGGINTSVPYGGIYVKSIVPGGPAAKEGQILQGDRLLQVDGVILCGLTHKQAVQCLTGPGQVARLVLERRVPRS
# Test: holdup assay
# Parameters: key: below the threshold = too weak to quantify, mostly under pKd 3.1 to 4
# Conditions: plain residues with an end cap or a label only (N-terminal biotin on a linker: ado-ado)
row,pKd,Binder
1,4.27,B1
2,below the threshold,B2
